Test: yeast display, Sf9 membrane polyspecificity reagent, FACS + sequencing; frameworks hold sequencing errors
How it was run: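 After 36–48 hours of galactose induction, yeast (Saccharomyces cerevisiae BJ5465) displaying a synthetic nanobody library were stained at 4 °C for 1 hour with 10% biotinylated, detergent-solubilized Sf9 membrane reagent. Streptavidin microbeads enriched the stained cells before FACS sorting into low and high (top ~1%) gates on anti-HA and streptavidin fluorescence. Each clone's polyreactivity label reflects its gate of origin.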

Sequence	polyreactivity (PSR sort gate)
QVQLVESGGGLVQAGGSLRFSSAASGSIFGTYVMGWYRQAPGKERELVAAISWSGGSTYYADSVKGRFTISRDNAKNTVYLQMNSLKPEDTAVYYCAADSIRFEYEYWGQGTQVTVSS	high polyreactivity
QVQLVESGGGLVQAGGSLRLSCAASGRTFKYNAMGWYRPAPGKERELVAAISSTGSTNYADSVKGRFTISRDNAKNTVYLQMNSLKPEDTAVYYCAASYFFVQWGWYYYWGQGTQVTVSS	low polyreactivity
QVQLVESGGGLVQAGGSLRLSCAASGIIFASNARGWYIQAPGKERELVASINRRGSSTYYADSVKGRFTISRDNAKNTVYLQMNSLKPEDTAVYYCAARAFNSGLGYTRYDYWGQGTQVTVSS	high polyreactivity
QGQLVESGGGLVQAGGSLRLRCAASGFTFAVNTMGWYRQAPVKERELVAAITASGGSTHYADSVKGRFTISRDNAKNNVYLQMNSLKPEDTAVYYCAARPRLYQYYYWGQGTQVTVSS	high polyreactivity
QVQLQESGGGLVQAGGSLRLSCAASGSISHYIFMGWYRQAPGKEREFVAGIGYGGTTNYADSVKGRFTISRDNAINTVYLQMNSLKPEDTAMYYCAAREATEFYLYYWGQGTQVTVSS	low polyreactivity
QVQLVESGGGLVQAGGSLRLSCAASGRTFGIYAMGWYRQAPGKERELVAAISSDASTSYADSVKGRFTISRDNAKNTVYLQMNSLKPEDTAVYYCAADPGPYYDWGYDYWGQGTQVTVSS	low polyreactivity
QVQLVESGGGLVQAGGSLRLSCAASGIIFLDNVMRWYRQAPGKERELVAAISSSGGSTYYADSVKGRFTISRDNAKNTVYLQMNSLKPEDTAVYYCAAYFRRGFYYWGQGTQVTVSS	high polyreactivity
QVQLVESGGGLVQAGGSLRLSCAASGRTFASYAMGWYRQAPGKERELVATIRRSGTSTYYADSVKGRFTISRDNAKNTVYLQMNSLKPEDTAVYYCAALRSLLYRTYGYWGQGTQVTVSS	low polyreactivity
QFQLVESGGGLVQAGGSLRLSCAASGYTFAVNTMGWYRQAPGKESELVAAITLGGGSTYYADSVKGRFTISRDNAKNTVYLQMNSLKPEDTAVYYCATDPVDYRGWWRGYKYDYWGQGTQVTVSS	low polyreactivity
QVQIVDSGAVIVQAGGSLRLSCDASGRIILINAMGWYRQAPGKERELVAAITSSGGSTYYADSVKGRFTISRDNAKNTVYLQMNSLKPEDTAVYYCAAARYSRYDYWGQGTQVTVSS	high polyreactivity
QVQLVESGGGLVQEGGSLRLICEASGFIFYNYAMGWYRQAPGKERELVAAISSSGGRTYYADSVKGRFTISRDNAKNTVYLQMNRLKREDTAVYYCNARVNYKGYDYWGQGTQVTVSS	high polyreactivity
QVQLVESGGGLVQAGGSLRLSCAASGRIFSRNAMGSYRQAPGKERELVAAITSGGSTYYADYVKGRFTISSDNAKNTVYLQLNSLKPEDTAVYTVKILRYDYWGQGTQVTVSS	high polyreactivity
QVQLVESGGGLVQAGGSLRLSCAASGSIFYHYAMGWYRQAPGKERELVAAISWRGASTYYADSVKGRFTISRDNAKNTVYLQMNSLKPEDTAVYYCARLSSSHPLYRDEYWGQGTQVTVSS	high polyreactivity
QVQLVESGGGLVQAGGSLRLSCAASGRIFAWYAMGWYRQAPGKERELVAAISSGGSTNYADSVKGRFTISRDNAKNTVYLQMNSLKPEDTAVYYCNRYPVRDTGGYWGQGTQVTVSS	low polyreactivity
QVQLVESGGGLVQAGGSLRLSCAASVRTFYRNAMGWYIQAPGKERELVAAITSGGSTYYADSVKGRFTISRDNAKNTVYLQMNSLKPEDTAVYYCAALRHALRYDYWGQGTQVTVSS	low polyreactivity
QVQLVESGGGLVQAGGSLRLSCAASGSTFKVYAMGWYRQAPGKERELVAAISRSGGRTYYADSVKGRFTISRDNAKNTVYLQMNSLKPEDTAVYYCNRDYTFSQGHYSGSYGYWGQGTQVTVSS	high polyreactivity
QVQLQESGGGLVHACGSLRPSCAASGSISDSWRMSWYRQAPGTEREFVAGITWGGTTNYADSVKGRFTISRDNAKNTVYLQMNSLKPEDTAVYYCNARQRTYYRTHRIRHKGNGYWGQGTQVTVSS	low polyreactivity
HFQLVESGGGLVQAGGSLRLSCAASVFIILINVMGWSRQAPGKERELVAVITGGGTTNYADSVKGRFTISRDNANNTVYLQMNSLKPVDTAGYYCAVDAGAGDNDYWGQGTQVTVSS	low polyreactivity
QVQLVESGGGLVQAGGSLRLSCAASGITFYYTMGWYRQAPGKERELVATISYDGTSTYYADSVKGRFTISRHNEKNTVYLHMNSLKPEDTAVYYSSAYGTVVTLNDYWGQGTQVTVSS	low polyreactivity
QVQHVESGGGLVQAGGSLRLSCAASGIIFYSYTMGWYRQAPGKDRELVAAISRNGGGTYYADSVKGRFTSSRDIAKNTGYLQMNSLKPEHTAVYYCAAGWRFGRYSGDYWGQGTQVTVSS	high polyreactivity
QVQLVESGGGLVQAGGSLRLSCAASGSTFDANAMGWYRQEPGKERELVATISDGGSTNYADSVKGRFTISRDNAKNTVYLQMNSLKPEDTAVYYCAADFSPWGGWYMSLDYWGQGTQVTVSS	low polyreactivity
QVQLVESGGGLVQAGGSLRLSCSASGRIFGAYAMGWYRQAPGKERELVAAITSAGSAHYADYVKGRFTISRDNAKNTVYLQMNSLKPEDTAVYYCAADGIARAYVLFYAYDFLYDYWGQGTQVTVSS	low polyreactivity

Sequence	polyreactivity (PSR sort gate)
QVQLVESGGGIVQAGGSLRLSCAASGIIFRYYAMGWYRQAPGNERELVAVITGRGGGTYYADSVKGRFTISRDNAKNTVYLQMNSLKPEDTAVYYCAKDFTGHYPKGFDYWGQGTQLTVSS	low polyreactivity
QDQLVESGGGLVQAGGSLRLSCAASGSTFRHYAMGWYRQAPGKERELVAVISWGGTSTYYADSVKGRFTISRDNAKNTVYLQMNSLKPEDTAVYYCNKAYFPIFKGYEMYYWGQGTQVTVSS	low polyreactivity
QDQLVESGGGLVQAGGSLRLSCAASGFTFYTNVMGWYRQAPGKERELVAAINSGGSTNYADSVKGRFTISRDNAKNTVYLQMNSMKPEDTAVYYCNKSGTEIGYDYWGQGTQVTVLS	low polyreactivity
QVQLVESGGGLVQAGGSLRLSCAASGSTFQSYAMGWYRQAPGKERELVAAISFSGGSTYYADSVKGRFTNSRDNSKNTVYLQMNSLIPEDTAVYYCAKRGWVYFHGYDYWGQGTQVTVSS	low polyreactivity
QVQLVESGGGLVQAGGSLRLSCPASGSTFQYNPLGWYRQAPGKERELVAAISRRGGSTYYADSVKGRFTISRDNAKNTVYLQMNSLKPEDTAVYYCAVSAYKGYDYWGQGTQVTVSS	high polyreactivity
QVQLVESGGGLVQAGGSLRLSCAASGFIFGIYDMGWYRQAPGKERELVAAITYSGSSTYYADSVKGRFTISRDNAKNTVYLQMNSLKQEDTAVYYCNKTPWDWDYWDPEYYYWGQGTQVTVSS	high polyreactivity
QVQLVESGGGLVQAGGSLRLSCAASGLIFWAYAMGWYRQAPGKERELVAAINSGGRTYYADSVKGRFTISRDNAKNTVYLQMNSLKPEDTAVYYCAAAGVYSSDYWGQGTQVTVSS	low polyreactivity
QVQLVESGGGLVQAGGSLRLSCAASGRTFRFYAMGWYRQAPGKERELVAAISSGGSTYYADSVKGRFTISRDNAKNTVYLQLNSLKAEDTAVYYCAVKQRDKFAGGRNDYWGQGTQVTVSS	high polyreactivity
QVQHVESGGGLVQAGGRLRLSCAASGIIFQYYAMGSYRQAPGKERESVAGITYPGGSTYYADSVKGRFTISRDNAKNTVYLPKNSLQPEDTAVYFCNAVGVSARYWRQLPSYRYDYWGQGTQVTVSS	low polyreactivity
QVQLVESGGGLVQAGGSLSLSCAASARTFYYYAMGWSRQAPGKEREFVASITWRGGRTYYADSVKGRFTISRDNAKNTVYLQMNSLKPEDTAVYYCAADGSYAIGGYGYWGQGTQVTVSS	high polyreactivity
QVQLVESAGGLVQAGGSLRLSCAASGRIFVTNAMGLYRQAPGKEREFVAGISFSGDGRTYYADSVKGRFTISRDYAKNSVYFQMNSLKPEDTAVYYCAAPHRSRTHELDYWGLGTQVTVSS	low polyreactivity
QVQLVESGGGLVQAGGSLRLSCAASGSTFDVYTMGWYRQAPGKERELVATISGDDGSTYYADSVKGRFTISRDNAKNTVYLQMNSLKPEDTAVYYCAADYGGFPNYYSTGDYWGQGTQVTVSS	low polyreactivity
QVQLVESGGGLVQAGGSLRLSCAASGSIFTYNAMGWYRQAPGKERELVATISDGGSTYYADSVKGRFTISRDNAKNTVYLQMNSLKPEDTAVYYCNKDRVSVRYEYWGQGTQVTVSS	low polyreactivity
QVHLVESGGGLVQAGGSLRLSCAASGRTFSGYAMGWYRQAPGKERELVAAITSSGSSTYYADSVKGRFTISRDNAKNTVYLQMNSLKPEDTAVYYCAATPQAHSERYYYQRKYDYWGQGTQVTVSS	low polyreactivity
QVQLVESGGGLVQAGGSLRLICAASGSTVYNAMGWYRQAPGTEREFVAVITDSDGSTYYADSVKGRFTISRDNAKNTVYLQMNSLKPEDTAVYDCAADDYAYSYGYWLTYDYWGQGTQVTVSS	low polyreactivity
LVQLVESGGGLVQAGGSLRLICAASGSIFSGYAMGWYRQAPGNERELVAAITRSGGRTYYADSVKGRFTISRDNAKNTVYLQMNSLKPEDTAGYYCATLPRYYGYWGQGTQVTVSS	high polyreactivity
QVQLVESGGGLVQAGGSLRLSCAASGSIFVHYAMGWYRQAPGKERELVAAISRSGGSTYYADSVKGRFTISRDNAKNTFYLQMNSLKPEDTAVYYCAADSGYLSPYDYWGHGTQVTVSS	low polyreactivity
QVQLVESGGGLVQAGGSLRLSCAASGSYFDYYAMGCYTQAPGKERELVAAISWRGGTTYYADSVKGRFTISRDTAKKTVYLQMNSLKPEETAVYYCNADKRFRRYDYWGQGTQVTVSS	high polyreactivity
QVQRVESGGGLVQAGGSLRLSCAASGSIFSIYAMGWYRQAPGKETELVAAIDSGTSTTYADSVKGRFTISRDNAKNTVYLEMNSLKPEDTAVYYCAAALYSDVAAVATYGYYCGQGTQVTVSS	low polyreactivity
QVQLVESGGGLVQAGGSLRLSCAASGIIFSYYPMGRYRQAPGIERELVAAISRSGGNTYYADSVKGRFTISRDNAKNTVYVQMNSLKPEDTAVYYCAVGWYDDYYYGYDYWGQGTQVTVSS	high polyreactivity
QVQLVESGGGLVQAGGSLRLSCAASGRTFHDNGMGGYRQAPGKERELVAAISWRGGSTNYADSVKGRFTISRDNAKNTVYLQMNSLKPEETAVYFCNRVPRKFGKLDYWGQGTQVTVSS	low polyreactivity
